Measurements reported in article PMC9482650, “Quantitative fragmentomics allow affinity mapping of interactomes” (Nature Communications, 2022).
Numbering of substitutions follows the chain as printed.

T1: NHERF3_4, Q5T2W1
T1 sequence (Q5T2W1 373-468, limits assumed, looked up): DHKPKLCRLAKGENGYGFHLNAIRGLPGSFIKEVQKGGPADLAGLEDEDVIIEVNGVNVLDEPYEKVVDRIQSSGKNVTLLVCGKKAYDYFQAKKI

T2: PDZD2_2, O15018
T2 sequence (O15018 329-429, limits assumed, looked up): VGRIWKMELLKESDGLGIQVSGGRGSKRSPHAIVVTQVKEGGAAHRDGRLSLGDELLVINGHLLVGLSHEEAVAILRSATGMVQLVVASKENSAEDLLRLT

T3: ARHGAP21, Q5T5U3
T3 sequence (Q5T5U3 45-169, limits assumed, looked up): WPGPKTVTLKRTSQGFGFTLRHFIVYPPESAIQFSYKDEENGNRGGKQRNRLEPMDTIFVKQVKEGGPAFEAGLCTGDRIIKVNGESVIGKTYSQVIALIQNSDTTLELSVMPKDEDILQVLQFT

T4: HTRA4, P83105
T4 sequence (P83105 378-476, limits assumed, looked up): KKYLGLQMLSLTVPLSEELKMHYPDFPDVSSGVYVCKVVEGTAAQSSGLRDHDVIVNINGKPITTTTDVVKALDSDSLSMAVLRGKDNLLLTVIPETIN

T5: PDZRN3_1, Q9UPQ7
T5 sequence (Q9UPQ7 244-349, limits assumed, looked up): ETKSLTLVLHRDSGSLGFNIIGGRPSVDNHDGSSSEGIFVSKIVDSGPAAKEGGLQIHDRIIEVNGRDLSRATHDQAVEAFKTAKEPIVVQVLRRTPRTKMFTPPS

T6: APBA2_2, Q99767
T6 sequence (Q99767 654-744, limits assumed, looked up): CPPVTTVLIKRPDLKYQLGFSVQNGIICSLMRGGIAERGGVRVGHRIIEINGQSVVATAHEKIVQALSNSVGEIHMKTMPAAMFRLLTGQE

T7: LIN7B, Q9HAP6
T7 sequence (Q9HAP6 88-185, limits assumed, looked up): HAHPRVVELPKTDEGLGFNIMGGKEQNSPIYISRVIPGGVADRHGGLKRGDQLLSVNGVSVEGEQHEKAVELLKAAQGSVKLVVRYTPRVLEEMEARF

T8: GRIP1_4, Q9Y3R0
T8 sequence (Q9Y3R0 467-571, limits assumed, looked up): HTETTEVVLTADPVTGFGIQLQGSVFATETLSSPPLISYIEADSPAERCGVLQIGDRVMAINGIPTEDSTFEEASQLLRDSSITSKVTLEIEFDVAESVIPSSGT

T9: SNTG2, Q9NY99
T9 sequence (Q9NY99 68-166, limits assumed, looked up): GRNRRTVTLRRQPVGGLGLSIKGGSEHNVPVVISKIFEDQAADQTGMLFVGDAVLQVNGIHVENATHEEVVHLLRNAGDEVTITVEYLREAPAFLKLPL

T10: LIN7C, Q9NUP9
T10 sequence (Q9NUP9 88-185, limits assumed, looked up): T7 sequence (Q9HAP6 88-185, limits assumed, looked up) with A2S, D13E, V35I, V40I, Q65H, S79K, R89K, A96S

T11: SNTB1, Q13884
T11 sequence (Q13884 107-205, limits assumed, looked up): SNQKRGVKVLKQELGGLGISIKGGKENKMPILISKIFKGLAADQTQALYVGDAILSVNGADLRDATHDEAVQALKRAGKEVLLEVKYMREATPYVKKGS

T12: LNX2_3, Q8N448
T12 sequence (Q8N448 463-564, limits assumed, looked up): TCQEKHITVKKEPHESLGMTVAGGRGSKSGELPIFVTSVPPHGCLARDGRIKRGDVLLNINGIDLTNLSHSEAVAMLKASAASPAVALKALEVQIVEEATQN

B1: HCN2, Q9UL51 (peptide)
chain: SARSRLSSNL
B2: CAVIN3, Q969G5 (peptide)
chain: EALLQMESVA
B3: TRAF2, Q12933 (peptide)
chain: IKAIVDLTGL
B4: GOT1L1, Q8NHS2 (peptide)
chain: EKKTLIGIKL

Target: Inadl_3, Q8NI35
Test: holdup assay
Parameters: key: below the threshold = too weak to quantify, mostly under pKd 3.1 to 4
Details: plain residues with an end cap or a label only (N-terminal biotin on a linker: ado-ado)

Sequence of Inadl_3, Q8NI35 (Q8NI35 359-469): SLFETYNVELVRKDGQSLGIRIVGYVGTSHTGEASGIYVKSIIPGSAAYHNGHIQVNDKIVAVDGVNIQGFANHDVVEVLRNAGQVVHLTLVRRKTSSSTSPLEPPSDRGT

Binder	pKd
B1	below the threshold
B2	below the threshold
B3	below the threshold
B4	below the threshold

Target: DLG1_2, Q12959
Test: holdup assay
Parameters: key: below the threshold = too weak to quantify, mostly under pKd 3.1 to 4
Details: plain residues with an end cap or a label only (N-terminal biotin on a linker: ado-ado)

Sequence of DLG1_2, Q12959 (Q12959 314-412): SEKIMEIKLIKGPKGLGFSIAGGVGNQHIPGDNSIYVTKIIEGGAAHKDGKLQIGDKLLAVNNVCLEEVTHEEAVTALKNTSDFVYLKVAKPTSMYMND

Binder	pKd
B1	below the threshold
B2	below the threshold
B3	below the threshold
B4	below the threshold

Target: IL16_4, Q14005
Test: holdup assay
Parameters: key: below the threshold = too weak to quantify, mostly under pKd 3.1 to 4
Details: plain residues with an end cap or a label only (N-terminal biotin on a linker: ado-ado)

Sequence of IL16_4, Q14005 (Q14005 1229-1329): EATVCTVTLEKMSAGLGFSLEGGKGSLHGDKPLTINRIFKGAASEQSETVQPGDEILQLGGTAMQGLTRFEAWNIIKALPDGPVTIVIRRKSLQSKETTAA

Binder	pKd
B1	below the threshold
B2	below the threshold
B3	below the threshold
B4	below the threshold

Target: SCRIB_2, Q14160
Test: holdup assay
Parameters: key: below the threshold = too weak to quantify, mostly under pKd 3.1 to 4
Details: plain residues with an end cap or a label only (N-terminal biotin on a linker: ado-ado)

Sequence of SCRIB_2, Q14160 (Q14160 857-960): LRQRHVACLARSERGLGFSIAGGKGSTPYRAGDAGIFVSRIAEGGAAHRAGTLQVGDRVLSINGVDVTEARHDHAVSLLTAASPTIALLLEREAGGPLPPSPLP

Binder	pKd
B1	below the threshold
B2	below the threshold
B3	below the threshold
B4	below the threshold

Target: FRMPD2_1, Q68DX3
Test: holdup assay
Parameters: key: below the threshold = too weak to quantify, mostly under pKd 3.1 to 4
Details: plain residues with an end cap or a label only (N-terminal biotin on a linker: ado-ado)

Sequence of FRMPD2_1, Q68DX3 (Q68DX3 770-861): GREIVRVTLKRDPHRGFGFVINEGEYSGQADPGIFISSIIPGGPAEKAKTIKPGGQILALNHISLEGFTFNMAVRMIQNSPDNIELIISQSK

Binder	pKd
B1	below the threshold
B2	3.62
B3	below the threshold
B4	3.88

Target: LNX1_3, Q8TBB1
Test: holdup assay
Parameters: key: below the threshold = too weak to quantify, mostly under pKd 3.1 to 4
Details: plain residues with an end cap or a label only (N-terminal biotin on a linker: ado-ado)

Sequence of LNX1_3, Q8TBB1 (Q8TBB1 500-596): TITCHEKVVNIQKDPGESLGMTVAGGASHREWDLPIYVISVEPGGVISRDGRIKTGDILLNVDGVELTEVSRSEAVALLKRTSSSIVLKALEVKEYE

Binder	pKd
B1	below the threshold
B2	below the threshold
B3	below the threshold
B4	below the threshold

Target: Inadl_6, Q8NI35
Test: holdup assay
Parameters: key: below the threshold = too weak to quantify, mostly under pKd 3.1 to 4
Details: plain residues with an end cap or a label only (N-terminal biotin on a linker: ado-ado)

Sequence of Inadl_6, Q8NI35 (Q8NI35 1058-1167): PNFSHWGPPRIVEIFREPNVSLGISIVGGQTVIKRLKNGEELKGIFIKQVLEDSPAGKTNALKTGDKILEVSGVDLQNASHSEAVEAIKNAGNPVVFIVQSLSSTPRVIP

Binder	pKd
B1	below the threshold
B2	below the threshold
B3	below the threshold
B4	below the threshold

Target: T1, NHERF3_4, Q5T2W1
Test: holdup assay
Parameters: key: below the threshold = too weak to quantify, mostly under pKd 3.1 to 4
Details: plain residues with an end cap or a label only (N-terminal biotin on a linker: ado-ado)

Binder	pKd
B1	below the threshold
B2	below the threshold
B3	below the threshold
B4	4.74

Target: LAP2, Q96RT1
Test: holdup assay
Parameters: key: below the threshold = too weak to quantify, mostly under pKd 3.1 to 4
Details: plain residues with an end cap or a label only (N-terminal biotin on a linker: ado-ado)

Sequence of LAP2, Q96RT1 (Q96RT1 other isoform, or with tags, fused parts or gaps): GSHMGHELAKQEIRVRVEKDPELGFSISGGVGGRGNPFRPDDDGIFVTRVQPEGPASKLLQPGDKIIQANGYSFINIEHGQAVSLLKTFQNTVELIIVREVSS

Binder	pKd
B1	below the threshold
B2	below the threshold
B3	below the threshold
B4	below the threshold

Target: T2, PDZD2_2, O15018
Test: holdup assay
Parameters: key: below the threshold = too weak to quantify, mostly under pKd 3.1 to 4
Details: plain residues with an end cap or a label only (N-terminal biotin on a linker: ado-ado)

Binder	pKd
B1	3.74
B2	below the threshold
B3	below the threshold
B4	below the threshold

Target: T3, ARHGAP21, Q5T5U3
Test: holdup assay
Parameters: key: below the threshold = too weak to quantify, mostly under pKd 3.1 to 4
Details: plain residues with an end cap or a label only (N-terminal biotin on a linker: ado-ado)

Binder	pKd
B1	4.37
B2	below the threshold
B3	3.74
B4	4.09

Target: LNX1_2, Q8TBB1
Test: holdup assay
Parameters: key: below the threshold = too weak to quantify, mostly under pKd 3.1 to 4
Details: plain residues with an end cap or a label only (N-terminal biotin on a linker: ado-ado)

Sequence of LNX1_2, Q8TBB1 (Q8TBB1 371-470): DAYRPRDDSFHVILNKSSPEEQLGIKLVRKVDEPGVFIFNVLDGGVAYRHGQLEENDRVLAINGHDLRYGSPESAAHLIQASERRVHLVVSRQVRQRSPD

Binder	pKd
B1	below the threshold
B2	below the threshold
B3	below the threshold
B4	below the threshold

Target: MAGI2_4, Q86UL8
Test: holdup assay
Parameters: key: below the threshold = too weak to quantify, mostly under pKd 3.1 to 4
Details: plain residues with an end cap or a label only (N-terminal biotin on a linker: ado-ado)

Sequence of MAGI2_4, Q86UL8 (Q86UL8 772-865): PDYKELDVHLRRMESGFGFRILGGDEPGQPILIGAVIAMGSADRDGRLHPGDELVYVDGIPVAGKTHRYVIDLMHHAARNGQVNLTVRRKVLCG

Binder	pKd
B1	below the threshold
B2	below the threshold
B3	below the threshold
B4	below the threshold

Target: TJP1_3, Q07157
Test: holdup assay
Parameters: key: below the threshold = too weak to quantify, mostly under pKd 3.1 to 4
Details: plain residues with an end cap or a label only (N-terminal biotin on a linker: ado-ado)

Sequence of TJP1_3, Q07157 (Q07157 416-512): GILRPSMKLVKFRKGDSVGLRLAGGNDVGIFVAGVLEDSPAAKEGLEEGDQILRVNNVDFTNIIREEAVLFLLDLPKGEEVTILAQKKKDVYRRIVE

Binder	pKd
B1	below the threshold
B2	below the threshold
B3	below the threshold
B4	below the threshold

Target: T4, HTRA4, P83105
Test: holdup assay
Parameters: key: below the threshold = too weak to quantify, mostly under pKd 3.1 to 4
Details: plain residues with an end cap or a label only (N-terminal biotin on a linker: ado-ado)

Binder	pKd
B1	below the threshold
B2	below the threshold
B3	below the threshold
B4	below the threshold

Target: DLG4_3, P78352
Test: holdup assay
Parameters: key: below the threshold = too weak to quantify, mostly under pKd 3.1 to 4
Details: plain residues with an end cap or a label only (N-terminal biotin on a linker: ado-ado)

Sequence of DLG4_3, P78352 (P78352 306-403): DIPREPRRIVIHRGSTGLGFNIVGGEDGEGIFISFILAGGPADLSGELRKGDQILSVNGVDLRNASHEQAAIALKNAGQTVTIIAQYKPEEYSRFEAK

Binder	pKd
B1	below the threshold
B2	below the threshold
B3	below the threshold
B4	below the threshold

Target: T5, PDZRN3_1, Q9UPQ7
Test: holdup assay
Parameters: key: below the threshold = too weak to quantify, mostly under pKd 3.1 to 4
Details: plain residues with an end cap or a label only (N-terminal biotin on a linker: ado-ado)

Binder	pKd
B1	3.63
B2	below the threshold
B3	below the threshold
B4	below the threshold

Target: T6, APBA2_2, Q99767
Test: holdup assay
Parameters: key: below the threshold = too weak to quantify, mostly under pKd 3.1 to 4
Details: plain residues with an end cap or a label only (N-terminal biotin on a linker: ado-ado)

Binder	pKd
B1	below the threshold
B2	3.61
B3	below the threshold
B4	below the threshold

Target: T7, LIN7B, Q9HAP6
Test: holdup assay
Parameters: key: below the threshold = too weak to quantify, mostly under pKd 3.1 to 4
Details: plain residues with an end cap or a label only (N-terminal biotin on a linker: ado-ado)

Binder	pKd
B1	below the threshold
B2	3.57
B3	below the threshold
B4	below the threshold

Target: T8, GRIP1_4, Q9Y3R0
Test: holdup assay
Parameters: key: below the threshold = too weak to quantify, mostly under pKd 3.1 to 4
Details: plain residues with an end cap or a label only (N-terminal biotin on a linker: ado-ado)

Binder	pKd
B1	below the threshold
B2	below the threshold
B3	below the threshold
B4	below the threshold

Target: T9, SNTG2, Q9NY99
Test: holdup assay
Parameters: key: below the threshold = too weak to quantify, mostly under pKd 3.1 to 4
Details: plain residues with an end cap or a label only (N-terminal biotin on a linker: ado-ado)

Binder	pKd
B1	below the threshold
B2	below the threshold
B3	below the threshold
B4	below the threshold

Target: T10, LIN7C, Q9NUP9
Test: holdup assay
Parameters: key: below the threshold = too weak to quantify, mostly under pKd 3.1 to 4
Details: plain residues with an end cap or a label only (N-terminal biotin on a linker: ado-ado)

Binder	pKd
B1	below the threshold
B2	below the threshold
B3	below the threshold
B4	below the threshold

Target: T11, SNTB1, Q13884
Test: holdup assay
Parameters: key: below the threshold = too weak to quantify, mostly under pKd 3.1 to 4
Details: plain residues with an end cap or a label only (N-terminal biotin on a linker: ado-ado)

Binder	pKd
B1	below the threshold
B2	below the threshold
B3	below the threshold
B4	below the threshold

Target: DLG1_3, Q12959
Test: holdup assay
Parameters: key: below the threshold = too weak to quantify, mostly under pKd 3.1 to 4
Details: plain residues with an end cap or a label only (N-terminal biotin on a linker: ado-ado)

Sequence of DLG1_3, Q12959 (Q12959 457-571): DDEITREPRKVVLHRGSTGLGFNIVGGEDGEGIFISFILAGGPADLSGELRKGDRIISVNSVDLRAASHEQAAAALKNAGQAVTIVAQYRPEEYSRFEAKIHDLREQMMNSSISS

Binder	pKd
B1	below the threshold
B2	below the threshold
B3	below the threshold
B4	below the threshold

Target: T12, LNX2_3, Q8N448
Test: holdup assay
Parameters: key: below the threshold = too weak to quantify, mostly under pKd 3.1 to 4
Details: plain residues with an end cap or a label only (N-terminal biotin on a linker: ado-ado)

Binder	pKd
B1	below the threshold
B2	below the threshold
B3	below the threshold
B4	below the threshold
